Substitutions are numbered along the chain they refer to. “And” between values parts separate entries of the source, which are not always exact repeats. Identical values can stand only once.
Assays:
[1] = molecular target: T1, eSrtA displayed on ICY200 yeast as a C-terminal Aga2p fusion (Staphylococcus aureus, UniProt Q2FV99 60-206); assay: yeast-displayed eSrtA, 10 µM Btn-LAETGG against 100 nM to 1 mM LPETGG, cell biotinylation by flow cytometry
T1 construct: the whole entry is named here; also called Yeast displaying eSrtA; S. cerevisiae displaying eSrtA; not shown: Aga2p, yeast display anchor
T1 chain: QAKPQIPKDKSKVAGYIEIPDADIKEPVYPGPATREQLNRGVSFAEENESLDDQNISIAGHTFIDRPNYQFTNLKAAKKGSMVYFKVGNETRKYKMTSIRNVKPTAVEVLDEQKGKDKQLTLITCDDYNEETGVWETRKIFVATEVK

Abz-LPECGK(Dnp)-CONH2 = molecular target: T2, Abz-LPECGK(Dnp)-CONH2
T2 chain: LPECGK

Alexa Fluor 647-LPESGG = molecular target: T3, Alexa Fluor 647-LPESGG
T3 chain: KLPESGG

Abz-LAETGK(Dnp)-CONH2 = molecular target: T4, Abz-LAETGK(Dnp)-CONH2
T4 chain: LAETGK

Gly-Gly-Gly-COOH = molecular target: T5, Gly-Gly-Gly-COOH
T5 chain: GGG

Abz-LPEAGK(Dnp)-CONH2 = molecular target: T6, Abz-LPEAGK(Dnp)-CONH2
T6 chain: LPEAGK

Abz-LPETGK(Dnp)-CONH2 = molecular target: T7, Abz-LPETGK(Dnp)-CONH2
T7 chain: LPETGK

[2] = molecular target: T8, human fetuin A, endogenous in human plasma, P02765
T8 chain: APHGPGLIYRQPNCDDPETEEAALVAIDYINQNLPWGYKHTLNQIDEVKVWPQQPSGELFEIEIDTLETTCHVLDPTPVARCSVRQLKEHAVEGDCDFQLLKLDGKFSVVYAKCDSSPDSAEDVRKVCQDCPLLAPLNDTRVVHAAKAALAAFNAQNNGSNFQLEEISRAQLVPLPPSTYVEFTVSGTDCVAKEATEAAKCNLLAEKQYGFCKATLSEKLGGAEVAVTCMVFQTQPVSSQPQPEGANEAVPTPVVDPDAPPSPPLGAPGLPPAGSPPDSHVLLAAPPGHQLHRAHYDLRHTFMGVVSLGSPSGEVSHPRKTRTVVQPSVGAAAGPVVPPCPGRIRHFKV

Alexa Fluor 488-LAETGG = molecular target: T9, Alexa Fluor 488-LAETGG
T9 chain: KLAETGG

Abz-LPESGK(Dnp)-CONH2 = molecular target: T10, Abz-LPESGK(Dnp)-CONH2
T10 chain: LPESGK

Abz-LRETGK(Dnp)-CONH2 = molecular target: T11, Abz-LRETGK(Dnp)-CONH2
T11 chain: LRETGK

Abz-LSETGK(Dnp)-CONH2 = molecular target: T12, Abz-LSETGK(Dnp)-CONH2
T12 chain: LSETGK

B1: non-biotinylated LPETGG peptide (peptide)
peptide: LPETGG
- Ki [1]: < 100 µM

B2: eSrtA(4S-9) (protein)
chain: T1 chain with N39D, S43C, A45V, A59T, F63A, K75R, F85L, I123V, E130F
- Km (Abz-LPECGK(Dnp)-CONH2): 69 µM
- kcat/Km (Abz-LPECGK(Dnp)-CONH2): 74000 M⁻¹ s⁻¹
- conjugation of fluorophore-peptide to GGG-diblock (gel fluorescence), cognate pair (Alexa Fluor 647-LPESGG): Significant peptide-diblock conjugation was observed only for cognate pairs of enzyme and substrate, with no detectable off-target substrate conjugation
- modification of GGG-PEG-functionalized 96-well plates (fluorescence), cognate pair (Alexa Fluor 647-LPESGG): Each enzyme exhibited significant modification only on its cognate substrate
- Km (Abz-LAETGK(Dnp)-CONH2): 387 µM
- Rel. Activity (fold below the enzyme's best substrate, LPESG) (Abz-LAETGK(Dnp)-CONH2): 898 fold
- kcat/Km (Abz-LAETGK(Dnp)-CONH2): 20.2 M⁻¹ s⁻¹
- Avg KM (uM) for GGG; with LPESG (4S) peptide (Gly-Gly-Gly-COOH): 69500 µM
- Avg KM (uM) for GGG; with LPETG (wt) peptide (Gly-Gly-Gly-COOH): 97600 µM
- Avg kcat/KM for GGG; with LPESG (4S) peptide (Gly-Gly-Gly-COOH): 46.1
- Avg kcat/KM for GGG; with LPETG (wt) peptide (Gly-Gly-Gly-COOH): 0.587
- Km,GGG (µM); listed substrate LPEAG (Gly-Gly-Gly-COOH): 41000 µM
- Km,GGG (µM); listed substrate LPECG (Gly-Gly-Gly-COOH): 55000 µM
- Km,GGG (µM); listed substrate LPESG (Gly-Gly-Gly-COOH): 69000 µM
- Km,GGG (µM); listed substrate LPETG (Gly-Gly-Gly-COOH): 98000 µM
- Km (Abz-LPEAGK(Dnp)-CONH2): 154 µM
- kcat/Km (Abz-LPEAGK(Dnp)-CONH2): 12300 M⁻¹ s⁻¹
- Avg KM (Abz-LPETGK(Dnp)-CONH2): 66.1 µM
- Avg kcat/KM (Abz-LPETGK(Dnp)-CONH2): 706
- Km (Abz-LPETGK(Dnp)-CONH2): 64.7 µM
- Rel. Activity (fold below the enzyme's best substrate, LPESG) (Abz-LPETGK(Dnp)-CONH2): 25 fold
- kcat/Km (Abz-LPETGK(Dnp)-CONH2): 720 M⁻¹ s⁻¹
- conjugation efficiency in human plasma, with supplemental calcium (densitometry) [2]: 1.8% or 57.6% by eSrtA(4S-9) in the absence or presence of supplemental calcium, respectively
- conjugation efficiency in human plasma, without supplemental calcium (densitometry) [2]: 1.8% or 57.6% by eSrtA(4S-9) in the absence or presence of supplemental calcium, respectively
- labeling of human plasma proteins with Gly-Gly-Gly-Lys(Biotin) [2]: identified a single transpeptidation product (FIG. 21C-D), identified by mass spectrometry and confirmed by Western blot as fetuin A
- conjugation of fluorophore-peptide to GGG-diblock (gel fluorescence), non-cognate pair (Alexa Fluor 488-LAETGG): no detectable off-target substrate conjugation
- modification of GGG-PEG-functionalized 96-well plates (fluorescence), non-cognate pair: no significant modification (Alexa Fluor 488-LAETGG): Each enzyme exhibited significant modification only on its cognate substrate
- Avg KM (Abz-LPESGK(Dnp)-CONH2): 123 µM
- Avg kcat/KM (Abz-LPESGK(Dnp)-CONH2): 17600
- Km (Abz-LPESGK(Dnp)-CONH2): 113 µM
- Specificity, LPESG over LPETG (Abz-LPESGK(Dnp)-CONH2): 25 fold
- difference in transpeptidation of LPESG over LPETG (Abz-LPESGK(Dnp)-CONH2): an approximately 40-fold difference in transpeptidation of LPESG (SEQ ID NO: 3) over LPETG (SEQ ID NO: 4) by eSrtA(4S-9)
- kcat/Km (Abz-LPESGK(Dnp)-CONH2): 18200 M⁻¹ s⁻¹ and 18000 M⁻¹ s⁻¹

B3: eSrtA(2A-9) (protein)
chain: QAKPQIPKDKSKVAGYIEIPDADIKEPVYPGPATREQLNRGVCFHDENESLDDQNISIAGHTFIDRPNYQFTNLKAAKPGSMVYFKVGNETRIYKMTSIRKVHPNAVEVLDEQEGKDKQLTLVTCDDYNEETGVWESRKIFVATEVK
- conjugation of fluorophore-peptide to GGG-diblock (gel fluorescence), non-cognate pair (Alexa Fluor 647-LPESGG): no detectable off-target substrate conjugation
- modification of GGG-PEG-functionalized 96-well plates (fluorescence), non-cognate pair: no significant modification (Alexa Fluor 647-LPESGG): Each enzyme exhibited significant modification only on its cognate substrate
- Avg KM (Abz-LAETGK(Dnp)-CONH2): 265 µM
- Avg kcat/KM (Abz-LAETGK(Dnp)-CONH2): 8420
- Km (Abz-LAETGK(Dnp)-CONH2): 265 µM
- Specificity (relative catalytic efficiency, fold), LAETG over LPETG (Abz-LAETGK(Dnp)-CONH2): 510 fold
- kcat/Km (Abz-LAETGK(Dnp)-CONH2): 8420 M⁻¹ s⁻¹
- Avg KM (uM) for GGG; with LAETG (2A) peptide (Gly-Gly-Gly-COOH): 1480 µM
- Avg kcat/KM for GGG; with LAETG (2A) peptide (Gly-Gly-Gly-COOH): 1070
- Km,GGG (µM); listed substrate LAETG (Gly-Gly-Gly-COOH): 1480 µM
- Km,GGG (µM); listed substrate LPETG (Gly-Gly-Gly-COOH): 585 µM
- Km,GGG (µM); listed substrate LRETG (Gly-Gly-Gly-COOH): 628 µM
- Km,GGG (µM); listed substrate LSETG (Gly-Gly-Gly-COOH): 1270 µM
- Avg KM (Abz-LPETGK(Dnp)-CONH2): 1270 µM
- Avg kcat/KM (Abz-LPETGK(Dnp)-CONH2): 16.5
- Km (Abz-LPETGK(Dnp)-CONH2): 1270 µM
- Rel. Activity (fold below the enzyme's best substrate, LAETG) (Abz-LPETGK(Dnp)-CONH2): 510 fold
- kcat/Km (Abz-LPETGK(Dnp)-CONH2): 16.5 M⁻¹ s⁻¹
- conjugation of fluorophore-peptide to GGG-diblock (gel fluorescence), cognate pair (Alexa Fluor 488-LAETGG): Significant peptide-diblock conjugation was observed only for cognate pairs of enzyme and substrate, with no detectable off-target substrate conjugation
- modification of GGG-PEG-functionalized 96-well plates (fluorescence), cognate pair (Alexa Fluor 488-LAETGG): Each enzyme exhibited significant modification only on its cognate substrate
- Km (Abz-LPESGK(Dnp)-CONH2): 4800 µM
- Rel. Activity (fold below the enzyme's best substrate, LAETG) (Abz-LPESGK(Dnp)-CONH2): 5940 fold
- kcat/Km (Abz-LPESGK(Dnp)-CONH2): 1.42 M⁻¹ s⁻¹
- Km (Abz-LRETGK(Dnp)-CONH2): 1070 µM
- kcat/Km (Abz-LRETGK(Dnp)-CONH2): 233 M⁻¹ s⁻¹
- Km (Abz-LSETGK(Dnp)-CONH2): 331 µM
- kcat/Km (Abz-LSETGK(Dnp)-CONH2): 355 M⁻¹ s⁻¹
